The data set deals with the molecule itself. The experiment in a line: MST.

The source of these data is publication PMC11283454 (Nature Communications, 2024).

B1: human ATE1 isoform 2 (arginyl-tRNA-protein transferase 1), recombinant (enzyme, UniProt O95260-2 1-518, looked up)
chain: MAFWAGGSPSVVDYFPSEDFYRCGYCKNESGSRSNGMWAHSMTVQDYQDLIDRGWRRSGKYVYKPVMNQTCCPQYTIRCRPLQFQPSKSHKKVLKKMLKFLAKGEVPKGSCEDEPMDSTMDDAVAGDFALINKLDIQCDLKTLSDDIKESLESEGKNSKKEEPQELLQSQDFVGEKLGSGEPSHSVKVHTVPKPGKGADLSKPPCRKAKEIRKERKRLKLMQQNPAGELEGFQAQGHPPSLFPPKAKSNQPKSLEDLIFESLPENASHKLEVRLVPVSFEDPEFKSSFSQSFSLYVKYQVAIHQDPPDECGKTEFTRFLCSSPLEAETPPNGPDCGYGSFHQQYWLDGKIIAVGVIDILPNCVSSVYLYYDPDYSFLSLGVYSALREIAFTRQLHEKTSQLSYYYMGFYIHSCPKMKYKGQYRPSDLLCPETYVWVPIEQCLPSLENSKYCRFNQDPEAVDEDRSTEPDRLQVFHKRAIMPYGVYKKQQKDPSEEAAVLQYASLVGQKCSERMLLFRN
modifications: red Tris-NTA dye on the labelled copy in MST
As a reminder, the Kd is the equilibrium constant for the complex coming apart. Low readings indicate higher affinity, high ones lower affinity. B1: the Kd stood at 8.5 µM.
